Reference: patent US20260055205A1 (published 2026)
Where a chain is given by its changes, count along the chain named. In names and notes the source's numbering stands. One block for each binder: values may come before it.

Columns and labels:
[1] = biological target: T1, human PSMA (human, UniProt Q04609 44-750, limits assumed); assay: binding screen
T1 construct: also called huPSMA; hPSMA

[2] = biological target: T2, human CD3 epsilon (human, UniProt P07766 23-126, limits assumed); assay: Octet, crude lysate
T2 construct: also called huCD3e
Source text: To achieve this, Pool 1 was created, which included 74 paTCE molecules, each containing PSMA.5 and one of the 74 CD3.23 mutation variants. Single mutations were chosen based on analyses including CD3.23 PTE score analysis (using internal PTE algorithm v12) and structural analysis. Structural considerations included: possible contact disruption, anticipated steric clashes, side chain charge maintenance and possible pockets filling. Stability and affinity of the individually expressed molecules in the form of crude lysate was evaluated by Octet (ForteBio).

T1 sequence (Q04609 44-750 limits assumed): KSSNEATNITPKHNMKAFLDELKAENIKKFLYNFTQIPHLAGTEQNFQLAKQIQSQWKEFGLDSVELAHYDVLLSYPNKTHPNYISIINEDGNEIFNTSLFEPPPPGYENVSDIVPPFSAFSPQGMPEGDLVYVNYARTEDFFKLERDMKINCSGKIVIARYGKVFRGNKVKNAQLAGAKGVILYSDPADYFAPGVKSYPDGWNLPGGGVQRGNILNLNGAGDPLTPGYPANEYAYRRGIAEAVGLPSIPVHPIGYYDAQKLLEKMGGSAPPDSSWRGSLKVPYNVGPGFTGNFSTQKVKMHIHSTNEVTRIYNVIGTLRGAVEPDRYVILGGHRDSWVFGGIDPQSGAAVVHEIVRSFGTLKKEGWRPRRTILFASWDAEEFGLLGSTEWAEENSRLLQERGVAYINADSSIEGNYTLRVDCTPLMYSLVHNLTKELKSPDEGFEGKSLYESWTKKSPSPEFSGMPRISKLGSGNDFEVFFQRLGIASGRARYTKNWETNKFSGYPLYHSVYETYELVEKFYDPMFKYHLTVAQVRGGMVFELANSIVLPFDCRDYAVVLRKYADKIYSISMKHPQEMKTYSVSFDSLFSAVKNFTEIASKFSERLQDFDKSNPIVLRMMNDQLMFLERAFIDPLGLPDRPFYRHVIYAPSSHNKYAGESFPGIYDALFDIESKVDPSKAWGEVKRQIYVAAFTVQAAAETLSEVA
T2 sequence (P07766 23-126 limits assumed): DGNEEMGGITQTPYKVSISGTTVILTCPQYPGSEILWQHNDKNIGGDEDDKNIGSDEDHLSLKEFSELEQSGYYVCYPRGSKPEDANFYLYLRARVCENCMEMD

B1: PSMA.353 (bispecific antibody, V domains shown)
VH: QVQLVESGGGVVQPGRSLRLSCAASGRTFGIYVWGWFRQAPGKEREFVGAMSWSGSNRKVSDSVKGRFTISRDNSKNTLYLQMNSLRAEDTAVYFCGASNKLYGRTWYDFNESDYWGQGTQVTVSS
notes: TCE with CD3.23; also called AC3755
Kd [1]: 5.1 nM

B4: PSMA.356 (bispecific antibody, V domains shown)
VH: B1 VH with G97A, L102E
notes: TCE with CD3.23; also called AC3758
Kd [1]: 7.8 nM

B7: PSMA.358 (bispecific antibody, V domains shown)
VH: B1 VH with A98G
notes: TCE with CD3.23; also called AC3760
Kd [1]: 6.5 nM

B11: CD3.77 (bispecific antibody, V domains shown)
VH: EVQLLESGGGIVQPGGSLKLSCAASGFTFNTYAMNWVRQAPGKGLEWVARIRSKYENYATYYADSVKDRFTISRDDSKNTVYLQMNNLKTEDTAVYYCVRHENFGNSYVSWFAHWGQGTLVTVSS
VL: ELVVTQEPSLTVSPGGTVTLTCRSSNGAVTSSNYANWVQQKPGQAPRGLIGGTNKRAPGTPARFSGSLLGGKAALTLSGVQPEDEAVYYCALWYPNLWVFGGGTKLTVL
notes: paTCE with PSMA.5; also called AC3406; N53E
Kd [2]: 575 nM

B12: CD3.85 (bispecific antibody, V domains shown)
VH: B11 VH with E56N, Y61D
VL: B11 VL
notes: paTCE with PSMA.5; also called AC3414; Y58D
Kd [2]: 939 nM

B13: CD3.60 (bispecific antibody, V domains shown)
VH: B11 VH with R52Q, E56N
VL: B11 VL
notes: paTCE with PSMA.5; also called AC3389; R52Q
Kd [2]: 434 nM

B15: CD3.92 (bispecific antibody, V domains shown)
VH: B11 VH with E56N, Y62W
VL: B11 VL
notes: paTCE with PSMA.5; also called AC3421; Y59W
Kd [2]: 37.2 nM

B17: CD3.83 (bispecific antibody, V domains shown)
VH: B11 VH with E56N, A59G
VL: B11 VL
notes: paTCE with PSMA.5; also called AC3412; A56G
Kd [2]: 8.2 nM

B23: CD3.90 (bispecific antibody, V domains shown)
VH: B11 VH with E56N, Y62Q
VL: B11 VL
notes: paTCE with PSMA.5; also called AC3419; Y59Q
Kd [2]: 7.2 nM

B24: CD3.72 (bispecific antibody, V domains shown)
VH: B11 VH with Y55K, E56N
VL: B11 VL
notes: paTCE with PSMA.5; also called AC3401; Y52cK
Kd [2]: 5.1 nM

B26: CD3.48 (bispecific antibody, V domains shown)
VH: B11 VH with A49G, E56N
VL: B11 VL
notes: paTCE with PSMA.5; also called AC3377; A49G
Kd [2]: 4.5 nM

B32: CD3.87 (bispecific antibody, V domains shown)
VH: B11 VH with E56N, Y61T
VL: B11 VL
notes: paTCE with PSMA.5; also called AC3416; Y58T
Kd [2]: 17.9 nM

B33: CD3.73 (bispecific antibody, V domains shown)
VH: B11 VH with Y55P, E56N
VL: B11 VL
notes: paTCE with PSMA.5; also called AC3402; Y52cP
Kd [2]: 33.1 nM

B35: CD3.79 (bispecific antibody, V domains shown)
VH: B11 VH with E56N, N57E
VL: B11 VL
notes: paTCE with PSMA.5; also called AC3408; N54E
Kd [2]: 8.3 nM

B37: CD3.88 (bispecific antibody, V domains shown)
VH: B11 VH with E56N, Y62D
VL: B11 VL
notes: paTCE with PSMA.5; also called AC3417; Y59D
Kd [2]: 63.2 nM

B41: CD3.43 (bispecific antibody, V domains shown)
VH: B11 VH with V48S, E56N
VL: B11 VL
notes: paTCE with PSMA.5; also called AC3372; V48S
Kd [2]: 11.2 nM

B42: CD3.69 (bispecific antibody, V domains shown)
VH: B11 VH with Y55A, E56N
VL: B11 VL
notes: paTCE with PSMA.5; also called AC3398; Y52cA
Kd [2]: 11.5 nM

B44: CD3.38 (bispecific antibody, V domains shown)
VH: B11 VH with W47D, E56N
VL: B11 VL
notes: paTCE with PSMA.5; also called AC3367; W47D
Kd [2]: 40.2 nM

B45: CD3.71 (bispecific antibody, V domains shown)
VH: B11 VH with Y55G, E56N
VL: B11 VL
notes: paTCE with PSMA.5; also called AC3400; Y52cG
Kd [2]: 20.1 nM

B47: CD3.93 (bispecific antibody, V domains shown)
VH: B11 VH with E56N, A63K
VL: B11 VL
notes: paTCE with PSMA.5; also called AC3422; A60K
Kd [2]: 8 nM

More lines, now with the values ahead:

Kd [1]: 17.8 nM
B2: PSMA.355 (bispecific antibody, V domains shown)
VH: B1 VH with G97A, L102D
notes: TCE with CD3.23; also called AC3757

binding result [1]: no binding
B3: PSMA.359 (bispecific antibody, V domains shown)
VH: B1 VH with Y94R, F95Y, G97A, A98G
notes: TCE with CD3.23; also called AC3761

Kd [1]: 24.6 nM
B5: PSMA.357 (bispecific antibody, V domains shown)
VH: B1 VH with G97A, L102G
notes: TCE with CD3.23; also called AC3759

binding result [1]: no binding
B6: PSMA.360 (bispecific antibody, V domains shown)
VH: B1 VH with Y94N, F95Y, G97A, A98G
notes: TCE with CD3.23; also called AC3762

Kd [2]: 14 nM
B8: CD3.23-D (bispecific antibody, V domains shown)
VH: B11 VH with E56N
VL: B11 VL
notes: paTCE with PSMA.5; also called AC3366; WT

Kd [2]: 1180 nM
B9: CD3.54 (bispecific antibody, V domains shown)
VH: B11 VH with I51A, E56N
VL: B11 VL
notes: paTCE with PSMA.5; also called AC3383; I51A

Kd [2]: 71.5 nM
B10: CD3.42 (bispecific antibody, V domains shown)
VH: B11 VH with V48G, E56N
VL: B11 VL
notes: paTCE with PSMA.5; also called AC3371; V48G

Kd [2]: 18.1 nM
B14: CD3.39 (bispecific antibody, V domains shown)
VH: B11 VH with W47E, E56N
VL: B11 VL
notes: paTCE with PSMA.5; also called AC3368; W47E

Kd [2]: 9.7 nM
B16: CD3.89 (bispecific antibody, V domains shown)
VH: B11 VH with E56N, Y62E
VL: B11 VL
notes: paTCE with PSMA.5; also called AC3418; Y59E

Kd [2]: 11.1 nM
B18: CD3.74 (bispecific antibody, V domains shown)
VH: B11 VH with Y55T, E56N
VL: B11 VL
notes: paTCE with PSMA.5; also called AC3403; Y52cT

Kd [2]: 11.3 nM
B19: CD3.80 (bispecific antibody, V domains shown)
VH: B11 VH with E56N, Y58G
VL: B11 VL
notes: paTCE with PSMA.5; also called AC3409; Y55G

Kd [2]: 34300 nM
B20: CD3.45 (bispecific antibody, V domains shown)
VH: B11 VH with V48W, E56N
VL: B11 VL
notes: paTCE with PSMA.5; also called AC3374; V48W

Kd [2]: 10.7 nM
B21: CD3.84 (bispecific antibody, V domains shown)
VH: B11 VH with E56N, A59T
VL: B11 VL
notes: paTCE with PSMA.5; also called AC3413; A56T

Kd [2]: 8.3 nM
B22: CD3.40 (bispecific antibody, V domains shown)
VH: B11 VH with V48A, E56N
VL: B11 VL
notes: paTCE with PSMA.5; also called AC3369; V48A

Kd [2]: 10.5 nM
B25: CD3.75 (bispecific antibody, V domains shown)
VH: B11 VH with Y55W, E56N
VL: B11 VL
notes: paTCE with PSMA.5; also called AC3404; Y52cW

Kd [2]: 51 nM
B27: CD3.68 (bispecific antibody, V domains shown)
VH: B11 VH with K54P, E56N
VL: B11 VL
notes: paTCE with PSMA.5; also called AC3397; K52bP

Kd [2]: 4.8 nM
B28: CD3.67 (bispecific antibody, V domains shown)
VH: B11 VH with S53T, E56N
VL: B11 VL
notes: paTCE with PSMA.5; also called AC3396; S52aT

Kd [2]: 183 nM
B29: CD3.86 (bispecific antibody, V domains shown)
VH: B11 VH with E56N, Y61E
VL: B11 VL
notes: paTCE with PSMA.5; also called AC3415; Y58E

Kd [2]: 7.4 nM
B30: CD3.78 (bispecific antibody, V domains shown)
VH: B11 VH with E56N, N57D
VL: B11 VL
notes: paTCE with PSMA.5; also called AC3407; N54D

Kd [2]: 8.3 nM
B31: CD3.91 (bispecific antibody, V domains shown)
VH: B11 VH with E56N, Y62G
VL: B11 VL
notes: paTCE with PSMA.5; also called AC3420; Y59G

Kd [2]: 7.8 nM
B34: CD3.82 (bispecific antibody, V domains shown)
VH: B11 VH with E56N, Y58W
VL: B11 VL
notes: paTCE with PSMA.5; also called AC3411; Y55W

Kd [2]: 165 nM
B36: CD3.41 (bispecific antibody, V domains shown)
VH: B11 VH with V48E, E56N
VL: B11 VL
notes: paTCE with PSMA.5; also called AC3370; V48E

Kd [2]: 6.1 nM
B38: CD3.81 (bispecific antibody, V domains shown)
VH: B11 VH with E56N, Y58F
VL: B11 VL
notes: paTCE with PSMA.5; also called AC3410; Y55F

Kd [2]: 5.7 nM
B39: CD3.44 (bispecific antibody, V domains shown)
VH: B11 VH with V48T, E56N
VL: B11 VL
notes: paTCE with PSMA.5; also called AC3373; V48T

Kd [2]: 8.2 nM
B40: CD3.94 (bispecific antibody, V domains shown)
VH: B11 VH with E56N, A63P
VL: B11 VL
notes: paTCE with PSMA.5; also called AC3423; A60P

Kd [2]: 425 nM
B43: CD3.56 (bispecific antibody, V domains shown)
VH: B11 VH with I51T, E56N
VL: B11 VL
notes: paTCE with PSMA.5; also called AC3385; I51T

Kd [2]: 3.8 nM
B46: CD3.70 (bispecific antibody, V domains shown)
VH: B11 VH with Y55R, E56N
VL: B11 VL
notes: paTCE with PSMA.5; also called AC3399; Y52cR
